From paper PMC7923638 (BMC Biotechnology, 2021)

Key:
[1] = biological target: T1, CsSDC (Camellia sinensis, UniProt A0A4S4DBB3); test: decarboxylase activity with and without […] PLP, UPLC; format: biochemical; settings: 20 mM serine, 40 °C, pH 7.0
T1 construct: gene SerDC; about 75 kDa on SDS-PAGE

[2] = substrate: C[C@H](N)C(=O)O; test: purified protein; settings: 45 °C, pH 8.0, 100 mM potassium phosphate, 0.1 mM PLP, 5 mM DTT, 1 mM K2EDTA, 10% glycerol, 1-100 mM substrate

T1 sequence (A0A4S4DBB3 entry or part of it): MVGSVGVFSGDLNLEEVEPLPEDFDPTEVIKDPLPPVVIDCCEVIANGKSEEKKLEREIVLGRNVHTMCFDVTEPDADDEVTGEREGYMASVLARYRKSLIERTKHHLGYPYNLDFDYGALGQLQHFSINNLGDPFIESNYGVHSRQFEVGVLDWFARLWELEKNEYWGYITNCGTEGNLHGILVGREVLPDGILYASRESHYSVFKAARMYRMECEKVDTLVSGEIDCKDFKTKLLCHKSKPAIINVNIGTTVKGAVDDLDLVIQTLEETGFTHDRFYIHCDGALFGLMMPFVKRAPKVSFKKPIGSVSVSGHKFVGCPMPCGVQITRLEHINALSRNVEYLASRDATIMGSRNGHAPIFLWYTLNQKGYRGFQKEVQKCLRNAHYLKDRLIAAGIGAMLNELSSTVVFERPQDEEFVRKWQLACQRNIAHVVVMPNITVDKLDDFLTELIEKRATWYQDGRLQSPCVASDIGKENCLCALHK

Molecule | decarboxylase activity with and without 0.1 mM PLP, UPLC [1] | Km [2] [mM] | Vmax [2] [µmol/min/mg]
Cc1ncc(COP(=O)(O)O)c(C=O)c1O [pyridoxal-5′-phosphate] | activities of CsAlaDC and CsSDC are significantly dependent on the presence of PLP | – | –
CsAlaDC (Camellia sinensis var. sinensis) (protein) MEGTVSVLSNVSKVELLSKCFDLITIPVEPLPPVVASNGVAGGETKNMKERDIVLGKNVHTTSLTITEPDVDDDSTSDMEAFMAGVLVRYRKTLIEKTKYHLGYPFNLDLDYGPLAELQHFAINNLGDPFIESNYGVHSRQFEVGVLDWFARLWEIEQKEYWGYITNGGTEGNLHGILIGREVFPDGIFYTSRESHYSIFKAARMYRMECVKVGTLINGEIDCADFKAKLLSNKDKPAIINLNIGTTVKGAVDDIDLVIQTLEECGFSHDRFYIHCDGALFGFMMPFLNRGPKITFKKPIGSVSVSGHKFMGCPTPCGVQITRLEHINALSRNVEYLASRDATITGSRNGHSPIILWYALNRKGFKGFQKEVQKCLRNAHYLKDRLREAGISAMLNELSSTVVFERPLDEEFVRRWQLACEGNMAHVIVMPNVTIEKLDEFLNELVQKRANWYNDGKAGPPCLAPDIGSENCDCDLHK | – | 33.25 | 3470
